Assay results: patent US12233115B2, “Long-acting parathyroid hormone” (Extend Biosciences, Inc., priority 2022, dated 2025)

What was measured:
[1] = Repeat dose pharmacokinetics of EXT608 in male and female rats; type: in vivo; details: rat; for Cmin: 0-24 h; for AUC(0-t): sc, read-out: AUC0-24 h
Experimental: 21-Day Experiment: EXT608 was formulated in 20 mM sodium acetate pH=5.5 buffer with 0.8% sodium chloride. In a repeat dose toxicokinetic study, groups of 18 rats (9 males+9 females) were subcutaneously dosed daily at a volume of 0.5 ml/kg with either 14.2 μg/kg or 70 μg/kg of EXT608. On Day 21, blood samples (˜0.5 ml) were collected at t=0 (pre-dose), 0.5, 1, 3, 8, 24, 32, 48, and 72 h with each timepoint being collected from one of three cohorts of 3 male and 3 female animals. Each blood sample was collected from the jugular vein into tubes containing K2EDTA and manually inverted several times. Blood samples were kept on wet ice pending centrifugation. Samples were centrifuged (˜2700 g, ˜10 min, ˜5° C.) within 1 hour of collection. Plasma was recovered and divided evenly into duplicate aliquots and frozen. 90-Day Experiment: EXT608 was formulated in 20 mM sodium acetate pH=5.5 buffer with 0.8% sodium chloride and 0.1% Polysorbate 80. In a repeat dose toxicokinetic study, groups of 18 rats (9 males+9 females) were subcutaneously dosed daily at a volume of 0.5 ml/kg with either 1, 3, or 10 μg/kg of EXT608. On Day 90, blood samples (˜0.5 ml) were collected at t=0 (pre-dose), 0.5, 1, 3, 8, 24, 32, 48, and 72 h with each timepoint being collected from one of three cohorts of 3 male and 3 female animals. Plasma was prepared as described above for the 21-Day experiment. […] Group-averaged EXT608 levels as a function of time are shown in FIG. 13 for the last dose administration after either 21 days of daily dosing (14.2 and 70 μg/kg) or 90 days of daily dosing (1, 3, and 10 μg/kg). Surprising, the PK profiles changed as a function of dose level. […] Pharmacokinetic parameters were determined from the plasma concentration versus time data (Table 6) by a non-compartmental extravascular administration model with uniform weighting using Phoenix® WinNonlin® Version 6.4 (Certara L.P. (Pharsight), Princeton, NJ). Pharmacokinetic analysis was performed on data collected from t=0 to 72 h following the last administered dose. […] The Cmax/Cmin ratio represents the peak-to-trough ratio of EXT608 concentration that was observed during the dosing period. […] Without being bound by theory, the low peak-to-trough ratios observed at low doses could be the result of a slower rate of absorption of EXT608 from the subcutaneous space into circulation. A low peak-to-trough ratio is desirable in many therapeutic applications, including parathyroid hormone replacement therapy. It allows dosing at levels close to the ideal efficacious dose without going too high where toxicity might be observed or too low where the efficacy is reduced.

[2] = Repeat dose pharmacokinetics of EXT608 in male and female cynomolgus monkeys; type: in vivo; details: cynomolgus monkey; for Cmin: 0-48 h; for AUC(0-t): sc
Experimental: 21-Day Experiment: EXT608 was formulated in 20 mM sodium acetate pH=5.5 buffer with 0.8% sodium chloride. In a repeat dose toxicokinetic study, groups of 4 cynomolgus monkeys (2 males+2 females weighing approximately 2.5 kg each) were subcutaneously dosed every other day at a volume of 0.05 ml/kg with either 1.4, 7 or 20 μg/kg of EXT608. On the last day of dosing, Day 21, blood samples (˜1.0 ml) were collected at t=0 (pre-dose), 0.5, 1, 3, 6, 12, 24, 48, and 72 h. Each blood sample was collected from the saphenous vein into tubes containing K2EDTA and centrifuged (˜2700 g, ˜10 min, ˜5° C.) within 1 hour of collection. Plasma was recovered and divided evenly into duplicate aliquots and frozen. 90-Day Experiment: EXT608 was formulated in 10 mM sodium acetate pH=5.5 buffer with 0.8% sodium chloride and 0.1% Polysorbate 80. In a repeat dose toxicokinetic study, groups of 6 cynomolgus monkeys (3 males+3 females) were subcutaneously dosed every other day at a volume of 0.05 ml/kg with either 0.7 or 2 μg/kg of EXT608. On the last day of dosing, Day 89, blood samples (˜1.0 ml) were collected at t=0 (pre-dose), 0.5, 1, 3, 6, 12, 24, 48, and 72 h. Plasma was prepared as described above for the 21-Day experiment. […] Group-averaged EXT608 levels as a function of time are shown in FIG. 14 for the last dose administration after either 21 days of every other day dosing (20, 7, and 1.4 μg/kg) or 89 days of every other day dosing (2 and 0.7 μg/kg). Surprising, the PK profiles changed as a function of dose level. […] Pharmacokinetic parameters were determined from the plasma concentration versus time data (Table 7) by a non-compartmental extravascular administration model with uniform weighting using Phoenix® WinNonlin® Version 6.4 (Certara L.P. (Pharsight), Princeton, NJ). Pharmacokinetic analysis was performed on data for individual animals collected from t=0 to 72 h following the last administered dose. […] It is noted that the t1/2 values were calculated from less than three half-lives of data. […] The Cmax/Cmin ratio represents the peak-to-trough ratio of EXT608 concentration that is observed during a dosing period. […] Without being bound by theory, the low peak-to-trough ratios observed at low doses could be the result of a slower rate of absorption of EXT608 from the subcutaneous space into circulation. A low peak-to-trough ratio is desirable in many therapeutic applications including parathyroid hormone replacement therapy. This is because it allows dosing at levels close to the ideal efficacious dose without going too high where toxicity is observed, or too low where the efficacy is reduced.

[3] = in vivo, 1 ug/kg, daily SC 1 μg/kg, 90 days
[4] = in vivo, 1.4 ug/kg, every-other-day SC 1.4 μg/kg, 21 days

With C=C1CC[C@H](OCCCNC(=O)CCOCCOCCOCCOCCOCCOCCOCCOCCOCCOCCOCCOCCOCCOCCOCCOCCOCCOCCOCCOCCOCCOCCOCCOCCOCCOCCOCCOCCOCCOCCOCCOCCOCCOCCOCCOCCNC(=O)CCN2C(=O)CC(SC[C@H](NC(=O)[C@H](Cc3ccccc3)NC(=O)[C@H](CC(N)=O)NC(=O)[C@H](Cc3c[nH]cn3)NC(=O)[C@@H](NC(=O)[C@H](CC(=O)O)NC(=O)[C@H](CCC(N)=O)NC(=O)[C@H](CC(C)C)NC(=O)[C@H](CCCCN)NC(=O)[C@H](CCCCN)NC(=O)[C@H](CCCNC(=N)N)NC(=O)[C@H](CC(C)C)NC(=O)[C@H](Cc3c[nH]c4ccccc34)NC(=O)[C@H](CCC(=O)O)NC(=O)[C@@H](NC(=O)[C@H](CCCNC(=N)N)NC(=O)[C@H](CCC(=O)O)NC(=O)[C@H](CCSC)NC(=O)[C@H](CO)NC(=O)[C@H](CC(N)=O)NC(=O)[C@H](CC(C)C)NC(=O)[C@H](Cc3c[nH]cn3)NC(=O)[C@H](CCCCN)NC(=O)CNC(=O)[C@H](CC(C)C)NC(=O)[C@H](CC(N)=O)NC(=O)[C@H](Cc3c[nH]cn3)NC(=O)[C@H](CCSC)NC(=O)[C@H](CC(C)C)NC(=O)[C@H](CCC(N)=O)NC(=O)[C@@H](NC(=O)[C@H](CCC(=O)O)NC(=O)[C@H](CO)NC(=O)[C@@H](NC(=O)[C@@H](N)CO)C(C)C)[C@@H](C)CC)C(C)C)C(C)C)C(N)=O)C2=O)C/C1=C/C=C1\CCC[C@]2(C)[C@@H]([C@H](C)CCCC(C)(C)O)CC[C@@H]12 (stereo partly shown) [EXT608] as the compound, how does the Tmax [1, 3] read?
Its Tmax is 1 h.

What about the half-life ([1]; in vivo, repeated daily SC dosing, across doses 1-70 μg/kg, read-out: t1/2 of elimination) of the same compound?
The half-life was 10.4 to 13.8 h.

What about the Cmin ([1]; daily SC 1 μg/kg, 90 days) of the same compound?
Its Cmin is 0.299 ng/mL.

And the Cmin ([1]; daily SC 3 μg/kg, 90 days)?
The Cmin was 0.875 ng/mL.

And the Cmin ([1]; daily SC 10 μg/kg, 90 days)?
The Cmin was 1.56 ng/mL.

What about the Cmin ([1]; daily SC 14.2 μg/kg, 21 days) of the same compound?
Its Cmin is 2.35 ng/mL.

And the Cmin ([1]; daily SC 70 μg/kg, 21 days)?
Its Cmin is 5.92 ng/mL.

What about the AUC(0-t) [1, 3] of the same compound?
The AUC(0-t) was 11.2 ng·h/mL.

What about the AUC(0-t) ([1]; in vivo, 3 ug/kg, daily SC 3 μg/kg, 90 days) of the same compound?
Its AUC(0-t) is 29.9 ng·h/mL.

What about the AUC(0-t) ([1]; in vivo, 10 ug/kg, daily SC 10 μg/kg, 90 days) of the same compound?
The AUC(0-t) was 93.2 ng·h/mL.

What about the AUC(0-t) ([1]; in vivo, 14.2 ug/kg, daily SC 14.2 μg/kg, 21 days) of the same compound?
Its AUC(0-t) is 149 ng·h/mL.

What about the AUC(0-t) ([1]; in vivo, 70 ug/kg, daily SC 70 μg/kg, 21 days) of the same compound?
The AUC(0-t) was 875 ng·h/mL.

What about the Cmin ([2]; every-other-day SC 0.7 μg/kg, 89 days) of the same compound?
The Cmin was 0.600 ng/mL.

And the Cmin ([2]; every-other-day SC 1.4 μg/kg, 21 days)?
The Cmin was 0.485 ng/mL.

What about the Cmin ([2]; every-other-day SC 2 μg/kg, 89 days) of the same compound?
Its Cmin is 0.635 ng/mL.

What about the Cmin ([2]; every-other-day SC 7 μg/kg, 21 days) of the same compound?
Its Cmin is 0.991 ng/mL.

And the Cmin ([2]; every-other-day SC 20 μg/kg, 21 days)?
The Cmin was 1.97 ng/mL.

What about the AUC(0-t) ([2]; in vivo, 0.7 ug/kg, every-other-day SC 0.7 μg/kg, 89 days, read-out: AUC0-48 h) of the same compound?
The AUC(0-t) was 45.4 ng·h/mL.

What about the AUC(0-t) ([2]; in vivo, 0.7 ug/kg, every-other-day SC 0.7 μg/kg, 89 days, read-out: AUClast) of the same compound?
Its AUC(0-t) is 61.6 ng·h/mL.

What about the AUC(0-t) ([2]; in vivo, 1.4 ug/kg, every-other-day SC 1.4 μg/kg, 21 days, read-out: AUC0-48 h) of the same compound?
Its AUC(0-t) is 41.5 ng·h/mL.

What about the AUC(0-t) ([2]; in vivo, 1.4 ug/kg, every-other-day SC 1.4 μg/kg, 21 days, read-out: AUClast) of the same compound?
Its AUC(0-t) is 48 ng·h/mL.

And the AUC(0-t) ([2]; in vivo, 2 ug/kg, every-other-day SC 2 μg/kg, 89 days, read-out: AUC0-48 h)?
The AUC(0-t) was 63.1 ng·h/mL.

What about the AUC(0-t) ([2]; in vivo, 7 ug/kg, every-other-day SC 7 μg/kg, 21 days, read-out: AUC0-48 h) of the same compound?
The AUC(0-t) was 147 ng·h/mL.

What about the AUC(0-t) ([2]; in vivo, 20 ug/kg, every-other-day SC 20 μg/kg, 21 days, read-out: AUC0-48 h) of the same compound?
The AUC(0-t) was 401 ng·h/mL.

What about the Cmax [2, 4] of the same compound?
The Cmax was 1.63 ng/mL.

What about the Tmax [2, 4] of the same compound?
Its Tmax is 1.8 h.

What about the Cmax ([2]; in vivo, 20 ug/kg, every-other-day SC 20 μg/kg, 21 days) of the same compound?
The Cmax was 38.1 ng/mL.

What about the half-life ([2]; in vivo, repeated every-other-day SC dosing, across doses, calculated from less than three half-lives of data, read-out: t1/2 of elimination) of the same compound?
Its half-life is 34.7 to 51 h.
